Assay: yeast display, Sf9 membrane polyspecificity reagent, FACS + sequencing; frameworks hold sequencing errors
In short: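 Polyreactivity labels are assigned by the sorting gate from which each nanobody was recovered. The gates were low and high (top ~1%), set on anti-HA fluorescence for expression and streptavidin fluorescence for reagent binding. Before sorting, galactose-induced (36–48 hours) yeast display cells were stained for 1 hour at 4 °C with 10% biotinylated, detergent-solubilized Sf9 membrane reagent.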

Sequence | polyreactivity (PSR sort gate)
QVQLVESVVGLVQAGGILRLSCSASGSTLPWYAMGWYRQAPGKERELVAAISYRGGSTYYADSVKGRFTISRDNAKNTVYLQLNSLKPEDTAVYYCAARFYFQPLWYKGYYWGQGTQVTVSS | high polyreactivity
QVQLVESVVGLVQAGGSLRLSCAASGGTFSFNAIGWYRQAPGKETELVAAITQTGDGTYYADSVKGRFTISRDNAKNSVYLQMNIMKPEDTAVYYCNTDSIPFVPWFRFDYWGQGTQVTVSS | low polyreactivity
QVQLVESVVGLVQAGGSLRLSCAASGRTFRRYAMGWYRQAPGKERELVAAISRSGGSTYADSVKGRFTISRDNAKNTVYLQMNSLKPEDTAVYYCAAVTYSGSRFDYWGQGTQVTVSS | high polyreactivity
QVQLVESVVGLVQAGGSLRLSCAASVRTFVEYSMGWYRQAPGQERELVAAISSGGGSTYYADSVKGRFTISRDNAKNTVYLQMNSLKPEDTAVSYCATVGYRHRGWTSGYWGQGTQVTVSS | high polyreactivity
QVQLVESVVGLVQAGGSLRLSCASSGSTFGANAMGRYRQAPGKEREFLAAISRSGVRTYYADSVKGRFTISRDNAKKTVYLQMNSLKPEDTAVYYCAADGYWWTYTRYDYWGQGTQVTVSS | low polyreactivity
QVQLVESWGGLFQAGGSLRLRCAASGRKFYYYAMVFYIQAPGKERELVAAITGRGGRTYYADSVKGRFTISRDNAKNTVYLQINSLKPDDTAVYYCAVRAGSAGYPKYDYWGQGTQVTLSS | high polyreactivity
QVQLVESWGGLVQAGGRLRLSCAASGNTFWDNAMRWYRQAPGKERELVAAIRWSTVSTHYADSVKGRFTISRDNAKNTVYLQMNSLKPEDTAVYDCAATAYYYYRDKYYGYDYWGQGTHVTVSS | low polyreactivity
QVQLVESWGGLVQAGGSLRISCAASGFIIDGNAMGWYRQAPGKERELLAAISGDGGSYYADSVKGRFTISRDNAKNSVYLQRNSLKPEDTAVYDCAAEQTQLYSFGWDEYWGQGTQVTVSS | low polyreactivity
QVQLVESWGGLVQAGGSLRISCAASGRTFGSYVMGWYRQAPGKERELVAAISSRGTRTYYADSVKGRFTISRDNAKNTVYLQMNSLKPEDTAVYYCNAKYGQYPPRYEYWGQGTQVTVSS | high polyreactivity
QVQLVESWGGLVQAGGSLRISCAASGRTFVRNALGWYRHAPGKEREMVAGITRSGGSTYYADSVKGRFTISRDNAKNTVYLQMNSLKPEDTAVYYCATQYRYYNHFVTPFTRYGYWGQGTQLTVSS | high polyreactivity
QVQLVESWGGLVQAGGSLRLICAASRGTFRVYAMGWYRQAPVKERELVAAITWRGGRTYYADSVKGRFTISRDNAKNTVYLQMNSLKPEDTAVYYCAADRYGDLYDYWGQGTQVTVSS | high polyreactivity
QVQLVESWGGLVQAGGSLRLSCAASGFTFFYYDMGWYRQAPGKERQLVAAITWRGGRTYYADSVKGRFTISRDNAKNTVYLQMNSLKPEDTAVYYCNAYWGYAKVGQFDYWGQGTQVTVSS | high polyreactivity
QVQLVESWGGLVQAGGSLRLSCAASGFTFTSYAMGCYRQAPGKEREFVAGITKGGGNTYYSDSVKGRFTISRDNAKNTVYLHMNSLKPEDTEVYYCAADRSSFYLSHGTVDCYDYWGQATQVTVSS | low polyreactivity
QVQLVESWGGLVQAGGSLRLSCAASGIFYPMGWYTQAPGKERELVAAISSVGSTKYADSVKGRFTISRDNAKNTVYFQINSLKPEDTAVYYSNADVTRASSRYNSWGQGTQVTVSS | low polyreactivity
QVQLVESWGGLVQAGGSLRLSCAASGITFSSNAMGWSRQAPGKERELVAAINSGDSTNYADSVKGRFTISRDNAKNTVYLQMNSLKPEDTAVYDCAKRYRRRFNYWGQGTQVTVSS | high polyreactivity
QVQLVESWGGLVQAGGSLRLSCAASGLIIYTYAMGWYRQAPGKERELVADINRSDGSTYYADSVKGRFTISRDNAKNTVYLQMNSLKPEDTAVYYCAVVGPYYSRFGGRYYYWGQGTQVTVSS | low polyreactivity
QVQLVESWGGLVQAGGSLRLSCAASGRIFGYYAMGWSRQAPGKERELVAVISSGGSTYADSVKGRFTISRDNAKNTVYLQMNSLKPEDTAFYYCAARNYWSSYRTYRSRYDYWGQGTQVTVSS | high polyreactivity
QVQLVESWGGLVQAGGSLRLSCAASGRIFKTYAMGWYRQAPGNEREFFAAITSSGGSTYYADSVKGRFTISRDHAKNTVYLQKNSLNPEDTAVYYCNAGSLHRRYYYEGDYWGQGTQVTVSS | high polyreactivity
QVQLVESWGGLVQAGGSLRLSCAASGRIFKYNAMGWYRQAPGKERELVAAISGGGSTNYADSVKGRFTISRDNAKNTVYLQMNSLKPEDTAVYYCAASDPFEASQYKYDYWGQGTQVTVSS | low polyreactivity
QVQLVESWGGLVQAGGSLRLSCAASGRIFWAYAMGWYRHAPGKERELVAGITFTGGRTYYADSVKGRFTISRDNAKNTVYLQMNSLKPEDTAVYYCAAAGLDVGRKDRDGYWGQGTQVTVSS | low polyreactivity
QVQLVESWGGLVQAGGSLRLSCAASGRTFGKYAMGWYRQAPGKERELVASITFSSGSTYYADSVKGRFTISRDNAKNTVYLQMNSLKPEDTAVYYCAKRGWGIYDYWGQGTQVTVSS | low polyreactivity
QVQLVESWGGLVQAGGSLRLSCAASGRTLGYNAMGWYRQAPGKERELVATISYNGGRTYYADSVKGRFTISRDNAKNTVYLQMNSLKPEDTAVYYCNTRYRWIRRSLFDYWGQGTQVTVSS | high polyreactivity

Sequence | polyreactivity (PSR sort gate)
QVQLVESWGGLVQAGGSLRLSCAASGSTFDRYAMGWYRQAPGKERELVAAISGSAGRTYYADSVKGRFTISRENAKNTVYLQMNTLKPEDTAVYFCAAVQIVSGNYDYYWGQGTQVTVSS | low polyreactivity
QVQLVESWGGLVQAGGSLRLSCAASGSTFDYNAMGWYRQAPGKERELVAAITSTGGNTYYADSVKGRFTISRDNAKNTVYLQMISMKPEDTAVYYCNKDVARYPYGKFDYWGQGTQVTVSS | low polyreactivity
QVQLVESWGGLVQAGGSLRLSCAASGSTFGKYFMGWYRQAHGKERELVAAISLSGGSTYYADSVKGRFTISRDKAKNTVYLQMNSLKPEDTAVYYCATVGYGYDYWGQGNQVTVSS | high polyreactivity
QVQLVESWGGLVQAGGSLRLSCAASGSTFTTNAMGWYRQAPGKERELVATMSGGGSTYYADSVKGSFTISRDNAKHTVYLQTNSLKPEDTAVYYCAKPTYRFYWGDFDYWGQGTQVTLSS | low polyreactivity
QVQLVESWGGLVQAGGSLRLSCAASGYTFSAYAMGWYRQAPGKERELVAAISWSGASTSYADSVKGRFTISRDNAKNTVYLQMNSLKPEDTAVYYCAARRLHYQFKYYSWGQGTQVTVSS | high polyreactivity
QVQLVESWGGLVQAGGSLRLSCAASVSTFYNYAMGWYRQAHGKERELVAAISKSGGSTYYADSVKGRFTISRDNAKNTVYLQMNSLNPEDTAVYYCAARGVYRTRSGMGYWGQGTQVTVSS | high polyreactivity
QVQLVESWGGLVQAGGSLRLSCAAYGIIFKYYAMGWYRQAPGKERELVAVITSNGARTYYADSVKGRFTISRDNAKNTVYLQMNSLKPEDTAVYYCNAYRLSVSVGYDYCGQGTQVTVSS | high polyreactivity
QVQLVESWGGLVQAGGSLRLSCSASGRTLRGYAMGWYRQAPGKERELVAAISKGGGSTFYADSVKGRFTISRDNAKNTVYLLMISLKPEDTAVYYCAARARYTRRGRHYDYWGQGTQVTVSS | high polyreactivity
QVQLVESWGGLVQAGGSLRLSSAASGFTFVTYGMGWYRQAPGKERELVARISSSSTNYADSVKGRFTISRDNAKNTVYLQMKSLKPEDTAVYYCAAVHYRWWYRSAYDYWGQGTQVTVSS | low polyreactivity
QVQLVESWGGLVQAGGSLRLSSAASGSIFYHYAMGWYRQAPGKERELVAAISWRGASTYYADSVKGRFTISRDNAKNTVYLQMNSLKPEDTAVYYCARLSSSHPLYRDDYWGQGTQVTLSS | high polyreactivity
QVQLVESWGGLVQAGGSRRLSCDASGRTFVTNAMGWYRQARGKERELVAAISGTGGSTYYADSVKGRFTISRDNAKNTVFLHMNRLKPEDTAVYSWAADTYIYGLEYDYWGQGTQVTVSS | low polyreactivity
QVQLVESWVGLVQAGGSLSLSCDASGFTILGYAMGWYRQAPGKERELVASITYGGDSTYYADSVKGRFTISRDNAKNTVYLQINCLKPEDTAVYYCNARPSYWWGGRLYGYWGQGSQVTVSS | high polyreactivity
QVQLVETAGGLVHAGGSLRLSCADSGRIFERNAMGWNRQSPGKERELVARITSGGGTYYADSVKGRFTISRDNAKNTVYLQMNSLKPEDTAVYYCAVQYLYRKYRRYDYWGQGTQVTVSS | high polyreactivity
QVQLVETEVGLDQAGGSLPLSCAASGYTFWAYAMGWYRQSPGKERELVAGISSRGSRTYYADSVKGRFTISRDNAKNTVYLQMNSLKPEDTAVYYCNALRTPPGYYPPFDYWGQGTQVTVSS | high polyreactivity
QVQLVETGGGIFQAGGSIRLSCAASGRTFSTYAKGWYRQAPGKERELVAGISRGGGSTYYADSVKGRFTISRDNAKNTVYLLMNSLKPEDTAVYYCAAKRPQYYVQYGYWGQGSQVTVSS | high polyreactivity
QVQLVETGGGIVQAGGSLRLRCAAAGRHCYHNVMGWYRQAPGKERELVAGIRSRGGSTSYADSVKGRFTISRDNSKNTVYLQMNSLKPEDTAVYYCATDTTLWYVLYDYWGQGTQVTVSS | low polyreactivity
QVQLVETGGGLFQAGVSLRLSCAASGSTFDGYVMGWYRQAPGKERELVAAISGSGGSTYYADSVKGRFTISRDHAQNTDYLQMISLKPEDTAVYYCAADSWWYDDYSEGDYWGQGTQVTVSS | low polyreactivity
QVQLVETGGGLVHAGGSLRLSCAASGFIFTEYAMGWYRQAPGKEMELVAAISRSDDATHYADSVKGRFTISRDNAKNTVSLQMNSLKTEDTAVYNCTVAPEGYSLVDTSPYYYWGQGTQVTVSS | low polyreactivity
QVQLVETGGGLVHAGGSLRLSCAASGSIFGLYAMGWYRQAPGKERELVAAITVSGGSTYYADSVKGRFTISRDNAKNTVYLQLNSLKPEDTAVYYCAARAGWPLYQYYYWGQGTQVTVSS | high polyreactivity
QVQLVETGGGLVKAGGSLRLSCAASGRIFLVNDMGWYRQAPGKERELVARINGGITNYADSVKGRFTISRDNAKNTVYFQMISLKPEDTAVYYCAARSRKYYSYYYWGQGTQLTVSS | high polyreactivity
QVQLVETGGGLVLAGGSLRLSCAASGSTFRLYAMGWYRQAPGTARELVAAITSGGSTYYADAVKGRFTISRDNAKNTVYLQMNSLKPEDTAVYYCARLAGDSTYWWWLYLITQRDDYWGQGTQVTVSS | low polyreactivity

From the nanobody polyreactivity screen of Harvey et al. (2022)
